Results as given in the DeepSol protein solubility set.

Test: soluble on expression in E. coli; label from the status in PepcDB or PDB records

| Sequence | soluble on expression in E. coli |
| --- | --- |
| MGSDKIHHHHHHMNNTIPRWRGFNLLEAFSIKSTGNFKEEDFLWMAQWDFNFVRIPMCHLLWSDRGNPFIIREDFFEKIDRVIFWGEKYGIHICISLHRAPGYSVNKEVEEKTNLWKDETAQEAFIHHWSFIARRYKGISSTHLSFNLINEPPFPDPQIMSVEDHNSLIKRTITEIRKIDPERLIIIDGLGYGNIPVDDLTIENTVQSCRGYIPFSVTHYKAEWVDSKDFPVPEWPNGWHFGEYWNREKLLEHYLTWIKLRQKGIEVFCGEMGAYNKTPHDVVLKWLEDLLEIFKTLNIGFALWNFRGPFGILDSERKDVEYEEWYGHKLDRKMLELLRKY | soluble |
| MGSDKIHHHHHHMLLDTNIFSSFEDYSDISGKLNELSRRLNPKSILLKHPKSIEYLNTLDEDTKRILLSKLAFCDLLNDYPSPINDLEFNTNVGYLKGTNNDLENNLLYAVYTNSVTYLITENRMIHQKSTKLGLKDRVLYLNEALDFFKEFYSIQKRQILPQIKQRPITKVDVDDQIFDSLREEYPEFNNWYNEKAHLGRECWCYIKESGKLGAVLIFNGEDFDVIKTDPLLPEKRRFKICTFKVDQVGYKLGELLLKKAFDYCIDNSITETYLTHFAKSEFDYLVNLITEYGFIDIGTNENGENVFFKDLNPTPNQLMFCDYKDIFKKYYPLFYDGNRVKKLVVPIRPQYHEKLFTDYVKRTSITLNEYFGDFIIEGNTIKKAYISHSPIKNLKKGDILLFYRSEDHKELTSLGVLEEFKTNLTSPEEIINMVGKRTVYSSREIEEIVKKPASVMIFTMHLHLKSPIPLTVLKENNILKGPPQTITEITHGAYEKIRDLGGINDNLTIH | not soluble |
| GPGSMQKQHAPGRGLVLHSHKVKGQQQERNDSLVQCAQHPPLQKRVNPHPHSHSSKPIPNIFVVITGLVVNPRTGSFHDFRSPCFPPPRGGGKGRNAWGNRNGEKVEAALAALQIGIFGDQHHIAGKEACQVDKKPSCSFFLTWPHILPTRFQRKKKRKNY | not soluble |
| MGSDKIHHHHHHEAKGHQTVKIDTVVSADKQTFLQFPGKVKAAQDISLAFRVSGTISKIHVKDGARVQEGQLLAELDPTDYQVQLDATEAEYQQIKAEAERVMALYKDNGTTPNANDKAVYGLKQITAKYKHHKDQLAYTRLYAPFNGYVQKRLFEAHETIGAGMPVIAMISGGTPEVEINLPAAEYIRREQFDNYHCTFDIYPGETYPLKLISVTPKANANQLYTMRLQVVPGTRAIPSPGMNTMVTILCRTEQENTLSVPTGAILQKEGKAYVFVFHPSSNTVHRQEVSILRLLNNGHSLITSRQLQPGEQIVSSGVHHIEDGEIVKPLSPVTNTNIGGLL | not soluble |
| AIAEAEGMLPPQSLSAKFEGSFAYLTVRDRLPTILTKVVDTLHRNKDNFYKEYGEEGTEAEKRAISFLSRLRNELQTDKPVLALTDNAEDTQAWNEYMERQQDLMENGQLVSWFKSPWLYVECYMYRRIQEALYMNPPMHNFDPFKEGKTQSYFESQQAIKYLCTYLQELITNMENMTEIQLRENFLKLIQVSLWGNKCDLSISAGQDNSQKLSPIDSLPDLQRFILVDDSSMVWSTLVASQGSRSSGMKHARVDIILDNAGFELVTDLVLADFLISSGLAKQIRFHGKSIPWFVSDVTKQDFEWTIKQTMAANHKWMSASGVQWKHFMKEGTWSYHDHPFWTLPHEFCDMTVDAANLYSTLQTSDLILFKGDLNYRKLTGDRKWEHTVRFDQALRGFQPAPLCSLRTLKADVQVGLQAGHAEKLSTQDPDWMTNGKYAVVQFSSPHREQ | soluble |
| MYIPNAFRESDTHNLQEHMDKTRLAILVTQGDDGLHATHLPLLLRSDEGPYGTLYGHMAKANPQWQQLNADAEAMVIFPGEDAYVSPSFYPSKAEHGKVVPTWNYLAVHAYGQAECFTDPDRLHQLLNDLTDRHESSRAQPWSINDAPADYIAKMLGAIVGFSIPVQRLQGKRKLSQNRSAEDMAGVRDGLGASHLANDQQIARLMSGWRPS | not soluble |
| MTRDEMRYMLETEGVLENEELEMLQGVFSLDTKVAREVMVPRTDAFMVDIQDDVQENINLILGENYSRIPVYSEDKDKIVGILHTKTLLKAARNLGFENIELGAIIQEPLFVPETIFIDDLLYELKRTQNQMAILLDEYGGVVGLATLEDLLEEIVGEID | not soluble |
| SLTTTDADWKPVADALGRSGKLGDNNTAYRINLPRNDLHITSYGVDIKPGLSLGGYAAFARYDNNETLLMGDLVITEEELPKVTDALQAHGIAQTALHKHLLQQDPPVWWTHIHGMGDAARLAQGLKAALDATTIGPPTPPPARQPPVDIDVAGVDQALGRKGTQDGGLMKYSIPRKDTIIEDGHVLPAVSLNLTTVINFQPVGRGRAAINGDFILIAPEVQEVIRAMRAGNITIVELHNHGLTEEPRLFYMHYWAVDDAVTLARALRPAMDATNLQS | not soluble |
| GPGSMDLNMRLLTRIFTYRRNHAEQGTIMSSKIAELSGRILSQQQYSQILEQRRWLQGLLKEVSLDMGAKEKEKSASPVVLPYGSIVSGTSFKDGDADYIVSFPIVSESTRQSGACVIDRERQEKFLSDIFSHIRKRNSDVELHPQRIFRARVPIVQYVRKSGQESARFDLSLSLDGLKNSLLLRQYMAGDPRLRLGVLGAKQWGREQQILNARRGWISPYALSIMYIHYMKETGRTALSFDEEAVSQRVNAIVSTAAESEGDISHVDELASILPLQEADMLLVEKDVFDFFAFYGTPGGFDFDASVVDIRSRERFSSKDQWCQLLDQLDERERWNLLGHEVILLRDPFEPHSLGRSVDFFRGEEIRERFRSAAVRKEPLSLFAFL | not soluble |
| MGLQELDPLAQLSLPPGFRFYPTDEELMVEYLCRKAAGHDFSLQLIAEIDLYKFDPWVLPSKALFGEKEWYFFSPRDRKYPNGSRPNRVAGSGYWKATGTDKVISTEGRRVGIKKALVFYIGKAPKGTKTNWIMHEYRLIEPSRRNGSTKLDDWVLCRIYKKQTSAQKQAYNNLMTSGREYSNNGSSTSSSSHQYDDVLESLHEIDNRSLGFAAGSSNALPHSHRPVLTNHKTGFQGLAREPSFDWANLIGQNSVPELGLSHNVPSIRYGDGGTQQQTEGIPRFNNNSDVSANQGFSVDPVNGFGYSGQQSSGFGFI | soluble |
| SANLCKRVVDLEKYIVKEAPPTVYYIPDFISEAEEEFLLQQVYRAPKPKWTQLSGRRLQNWGGLPNPKGMLAEKLPDWLLEYTEKISALGAFAGKTANHVLVNEYKPGEGIMPHEDGPLYHPTVTTITVGSHTLLDFYRPVCQAEPDAPQTEESRYMLSLLVQRKSLLILQDDMYKCYLHGIRGVCEDVLSEHVVNISSTGAQVGDTLPRSTRVSLTIRHVPKIIRANLFLGKK | soluble |
| LKLKDRVKLFLTPQNALFEVLQKYSEDFLNGEEVVKDNFKIDTAAAMSFSAVFACNRVLSETLASCPIMLYEKDDKGNRRQVTDTAEYGVLHYAPNAEMTPVQFKEFGMTNINLGGNFIAQKVFNMHGELLELRPIAWDRVRIDIDKSTGRLLYYIDGKQEPKTRDEIFHIPGLTLDGYIGITPLSYAALTIDIGLSQDTFERNFYHNRASTSGIFQYPNELSDEAFQRLKKDIKKNYTGLSNAGVPMILEGGGQFKEITMKLTDAQFLESKRFRIEDVCRIFRVPLHLVQDLTRSTNNNIEHQSLEFIVYTMLPWFKKWEENLNLQLLSKESRRKNRYFEFNISGLLRGDIKSRYEAYAQGRQWGWLSVNDIRRLENMNPIDNGDRYLEPLNMSEAGKQEEQLKALREEIFNMINERK | soluble |
| MGSSHHHHHHSSGLVPRGSHMSKARVYADVNVLRPKEYWDYEALTVQWGEQDDYEVVRKVGRGKYSEVFEGINVNNNEKCIIKILKPVKKKKIKREIKILQNLCGGPNIVKLLDIVRDQHSKTPSLIFEYVNNTDFKVLYPTLTDYDIRYYIYELLKALDYCHSQGIMHRDVKPHNVMIDHELRKLRLIDWGLAEFYHPGKEYNVRVASRYFKGPELLVDLQDYDYSLDMWSLGCMFAGMIFRKEPFFYGHDNHDQLVKIAKVLGTDGLNAYLNKYRIELDPQLEALVGRHSRKPWLKFMNADNQHLVSPEAIDFLDKLLRYDHQERLTALEAMTHPYFQQVRAAENSRTRA | soluble |
| MGSDKIHHHHHHMQRQTELKNWLQTVYPERDFDLSFAAADADFRRYFRAAFSDGGSVVCMDAPPDKMSVAPYLKVQKLFDMVNVPQVLHADTDLGFVVLNDLGNTTFLTAMLQEQGEAAHKALLLEAIGELVGLQKASREGVLPEYDRETMLREINLFPEWFVAKELGRELTFKQRQLWQQTADTLLPPLLAQPKVYVHRDFIVRNLMLTRGRPGVLDFQDALYGPISYDLVSLLRDAFIEWEEEFVLDLVIRYWEKARAAGLPVPAEFDEFYRRFEWMGVQRHLKVAGIFARLYYRDGKDKYRPEIPRFLNYLRRVSRRYAELAPLYALLVELVGDEELETGFTF | not soluble |
| MVDSKKRPGKDLDRIDRNILNELQKDGRISNVELSKRVGLSPTPCLERVRRLERQGFIQGYTALLNPHYLDASLLVFVEITLNRGAPDVFEQFNAAVQKLEEIQECHLVSGDFDYLLKTRVPDMSAYRKLLGETLLRLPGVNDTRTYVVMEEVKQSNRLVIKTR | not soluble |
| GSHMASMTGGQQMGRGSEFKKYLETNGIKPKQFHKKELIFNQWDPQEYCIFLYDGITKLTSISENGTIMNLQYYKGAFVIMSGFIDTETSVGYYNLEVISEQATAYVIKINELKELLSKNLTHFFYVFQTLQKQVSYSLAKFNDFSINGKLGSICGQLLILTYVYGKETPDGIKITLDNLTMQELGYSSGIAHSSAVSRIISKLKQEKVIVYKNSCFYVQNLDYLKRYAPKLDEWFYLACPATWGKLN | soluble |
| HEIPYDNTSLPAVTFMQPSAKKNLLIFGGYDSNLEELILWFSPLRNNGYNLIIFDGPGQGNMLFKKEKSHFIMNFEKPVAAVLDYFSLDRVAALGLSWGGFFVMRAAAFEKRIEKIIALDIFYQGLDALTIAMNPVLAFIFKTLVNFKCKTWIDVLLTHAMTRDLDLNWKIKRGYQLTGTKTPYDLIQNIKKHNMKGLGPLINQEVLLLAGEKDQYVPVKRLGQIKKELSNAAEIKTHLFTQESGGEQHCQAGSNLALLAIKDFLK | not soluble |
| MRFLFSLIGLVYSSLIKLAVPFNPKARMMVRGRWKVWRQLREGIVPGGRYIWFHAASLGEFEQGRPMIERIRSEYPDYRIVLTFFSPSGYEVRKNYEGADVIVYLPADRLPRVRKFLDLVKPEMAIFIKYDFWPCFLTELERRQIPTYLVSSIFRPSQLFFRWYGGAYKRLLHCFTHIFVQDKASRLLLEKHGIDHVSVAGDTRFDRVISVYEARKSLPLIERFAASVPEDGLVIVGGSSWPPDEEILVRYFNRNPKIKLILAPHEIDKEHLLQIISHIRRPFIRLSEATESDIARQDCLIVDSFGLLSSIYRYGQVAFIGGGFGKGIHNTPEAAVYGIPVIFGPRYEKFKEARELIDVGGGFSVSSAEEFGNLIKRIQTDKAYRDAASRAAADYIRSNAGATGYIVHRIMKLEHHHHHH | soluble |
| RENFPGVSWDSLPDELLLGIFSCLCLPELLKVSGVCKRWYRLASDESLWQTLDEFRVQHMDLSNSVIEVSTLHGILSQCSKLQNLSLEGLRLSDPIVNTLAKNSNLVRLNLSGCSGFSEFALQTLLSSCSRLDELNLSWCFDFTEKHVQVAVAHVSETITQLNLSGYRKNLQKSDLSTLVRRCPNLVHLDLSDSVMLKNDCFQEFFQLNYLQHLSLSRCYDIIPETLLELGEIPTLKTLQVFGIVPDGTLQLLKEALPHLQINCSHFTTIAR | soluble |
| MVKTEPLQITTELPGRTSAYRIAEVRPQVSGIILKRNFKEGSDIEAGVSLYQIDPATYQATYDSAKGDLAKAQAAANIAQLTVNRYQKLLGTQYISKQEYDQALADAQQANAAVTAAKAAVETARINLAYTKVTSPISGRIGKSNVTEGALVQNGQATALATVQQLDPIYVDVTQSSNDMMRLKQELANGTLKQENGKAKVSLITSDGIKFPQDGTLEFSDVTVDQTTGSITLRAIFPNPDHTMMPGMFVRARLEEGLNPNAILVPQQGLEHHHHHH | soluble |
